T1: mouse CD38 (ACROBiosystems, CD8-M5223) (mouse, UniProt P56528 45-304)
T1 construct: Bought recombinant protein, coated on the ELISA plate
T1 sequence (looked up): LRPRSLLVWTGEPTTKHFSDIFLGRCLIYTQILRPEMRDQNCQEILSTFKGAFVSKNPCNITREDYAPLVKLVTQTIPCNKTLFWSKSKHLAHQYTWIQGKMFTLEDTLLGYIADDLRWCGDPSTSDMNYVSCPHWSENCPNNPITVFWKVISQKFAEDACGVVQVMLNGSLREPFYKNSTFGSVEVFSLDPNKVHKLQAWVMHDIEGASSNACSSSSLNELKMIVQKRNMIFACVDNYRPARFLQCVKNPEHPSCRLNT

T2: human CD157 protein (SinoBiological, 10060-H08H) (human, UniProt Q10588 33-292)
T2 construct: Bought recombinant protein, coated on the ELISA plate
T2 sequence (looked up): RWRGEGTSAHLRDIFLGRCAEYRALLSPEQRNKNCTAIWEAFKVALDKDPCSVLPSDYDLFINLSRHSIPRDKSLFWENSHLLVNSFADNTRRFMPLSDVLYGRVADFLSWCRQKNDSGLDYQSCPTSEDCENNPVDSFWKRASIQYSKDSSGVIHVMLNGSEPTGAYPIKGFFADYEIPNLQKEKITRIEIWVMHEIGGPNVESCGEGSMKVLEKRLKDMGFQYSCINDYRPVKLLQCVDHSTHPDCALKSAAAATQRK

B1: IgM H-1 (bispecific antibody)
VH: QVPLHQSGPELIKPGASLKISCKASDSAFNNSWMNWVRQRPGKGLEWIGWIYPGDDDTKYNGKFMGKATLTADKSSGTAYMQLSSLTSEDSAVYFCARGRWGMDYWGQGTSVTVSS
VL: DIVMTQFHNFMSTSVGDRVNINCKASQNVVTAVAWYQQKPGQSPKLLIYWASTRHTGVPDRFTGSGSGTDFTLTISNVQSEDLADYFCQQYSNYPFTFGSGTKLEIK
chain: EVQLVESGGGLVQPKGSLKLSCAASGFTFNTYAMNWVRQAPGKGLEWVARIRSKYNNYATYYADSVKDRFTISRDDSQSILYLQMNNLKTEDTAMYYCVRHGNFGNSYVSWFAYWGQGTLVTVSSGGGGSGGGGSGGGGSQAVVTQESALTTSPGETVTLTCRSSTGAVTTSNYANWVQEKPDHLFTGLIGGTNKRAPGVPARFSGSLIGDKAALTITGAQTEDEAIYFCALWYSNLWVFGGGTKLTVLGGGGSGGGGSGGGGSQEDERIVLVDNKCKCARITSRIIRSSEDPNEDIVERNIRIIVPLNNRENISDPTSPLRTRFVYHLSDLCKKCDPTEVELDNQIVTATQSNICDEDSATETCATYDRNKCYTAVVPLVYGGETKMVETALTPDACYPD
notes: Constant regions not specified; also called chimeric CD38 × CD3 IgM antibody of Clone H
B2: IgM A-1 (bispecific antibody)
VH: QVQLQQSGAELVKPGASVKISCKASGYTFSNYWIEWVKQRPGLGLEWIGDILPGSGTTNYNEKFKGKATFTADTSSNTAYMQLSSLTSEDSAVYYCAGYGNYLWFTYWGQGTLVTVSA
VL: DIQMNQSPSSLSASLGDTITITCHASQNINVWLSWYQQKPGNIPKLLIYKASNLHTGVPSRFSGSGSGTGFTLTISSLQPEDIATYYCQQGQSYPYTFGGGTKLEIK
chain: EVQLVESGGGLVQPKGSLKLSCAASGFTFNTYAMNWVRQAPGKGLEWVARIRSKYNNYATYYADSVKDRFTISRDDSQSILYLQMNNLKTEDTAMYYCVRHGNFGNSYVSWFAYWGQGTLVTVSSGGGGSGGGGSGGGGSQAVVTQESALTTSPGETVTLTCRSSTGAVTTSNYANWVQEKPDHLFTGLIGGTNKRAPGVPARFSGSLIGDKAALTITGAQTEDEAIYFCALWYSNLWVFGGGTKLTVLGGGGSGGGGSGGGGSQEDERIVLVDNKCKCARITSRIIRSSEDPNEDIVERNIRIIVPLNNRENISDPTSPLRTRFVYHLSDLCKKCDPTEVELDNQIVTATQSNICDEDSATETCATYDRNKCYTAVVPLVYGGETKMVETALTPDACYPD
notes: The IgM heavy chain constant region and the light chain constant region used are not specified; also called chimeric CD38 × CD3 IgM antibody of Clone A
B3: IgM B-2 (bispecific antibody)
VH: QVQLVQSGAEVKKPGSSVKVSCKASGYTFTSYNMHWVRQAPGQGLEWMGYIYPGNGGTNYNQKFKGRVTITADESTSTAYMELSSLRSEDTAVYYCARGASMITTGAWFAYWGQGTLVTVSS
VL: DIQMTQSPSSVSASVGDRVTITCRASESLDTYGNSFMYWYQQKPGKAPKLLIYLASSLESGVPSRFSGSGSGTDFTLTISSLQPEDFATYYCHQNHEDPWTFGQGTKVEIK
chain: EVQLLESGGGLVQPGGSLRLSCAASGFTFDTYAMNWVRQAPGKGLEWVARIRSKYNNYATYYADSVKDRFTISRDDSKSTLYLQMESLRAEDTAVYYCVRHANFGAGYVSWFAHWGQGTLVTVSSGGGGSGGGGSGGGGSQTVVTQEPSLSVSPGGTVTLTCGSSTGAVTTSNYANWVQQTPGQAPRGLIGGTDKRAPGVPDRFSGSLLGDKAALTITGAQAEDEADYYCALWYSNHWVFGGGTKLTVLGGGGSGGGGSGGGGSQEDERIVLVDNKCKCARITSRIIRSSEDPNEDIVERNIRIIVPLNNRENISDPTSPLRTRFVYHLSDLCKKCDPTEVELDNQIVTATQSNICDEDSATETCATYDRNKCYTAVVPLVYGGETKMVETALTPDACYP
notes: IgM and light chain constant regions not specified; also called humanized CD38 × CD3 IgM antibody
B4: IgM B-4 (bispecific antibody)
VH: B3 VH
VL: B3 VL
chain: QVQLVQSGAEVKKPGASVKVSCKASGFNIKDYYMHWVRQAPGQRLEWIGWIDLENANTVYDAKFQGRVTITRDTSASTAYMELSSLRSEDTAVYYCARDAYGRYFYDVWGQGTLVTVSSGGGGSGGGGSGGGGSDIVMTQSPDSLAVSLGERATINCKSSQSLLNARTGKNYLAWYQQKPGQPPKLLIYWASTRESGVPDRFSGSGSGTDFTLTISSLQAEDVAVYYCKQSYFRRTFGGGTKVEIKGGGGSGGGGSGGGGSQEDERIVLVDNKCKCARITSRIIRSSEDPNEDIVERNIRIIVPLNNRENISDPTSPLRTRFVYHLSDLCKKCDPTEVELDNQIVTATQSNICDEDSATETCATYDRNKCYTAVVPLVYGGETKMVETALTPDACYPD
notes: Constant regions not specified; also called humanized CD38 × CD3 IgM antibody
B5: IgM E-2 (bispecific antibody)
VH: QVQLVQSGAEVKKPGSSVKVSCKASGYTFTNHWIEWVRQAPGQGLEWMGDIFPGGGYTDYNEKFKGRVTITADESTSTAYMELSSLRSEDTAVYYCARGRDLAMDYWGQGTLVTVSS
VL: DIQMTQSPSSLSASVGDRVTITCHASQNINVWLGWYQQKPGKAPKLLIYKASNLHTGVPSRFSGSGSGTDFTLTISSLQPEDFATYYCQQGQSYPYTFGQGTKVEIK
chain: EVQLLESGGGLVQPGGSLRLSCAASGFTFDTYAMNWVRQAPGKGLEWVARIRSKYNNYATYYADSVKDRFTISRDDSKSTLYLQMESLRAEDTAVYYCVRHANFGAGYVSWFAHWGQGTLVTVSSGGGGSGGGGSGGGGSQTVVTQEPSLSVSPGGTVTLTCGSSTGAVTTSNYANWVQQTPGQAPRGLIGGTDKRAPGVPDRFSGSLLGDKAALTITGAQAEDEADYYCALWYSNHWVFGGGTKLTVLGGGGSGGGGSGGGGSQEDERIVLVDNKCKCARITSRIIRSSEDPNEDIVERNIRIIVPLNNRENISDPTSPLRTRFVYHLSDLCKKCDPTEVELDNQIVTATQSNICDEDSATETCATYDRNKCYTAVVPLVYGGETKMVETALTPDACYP
notes: as for B4
B6: IgM E-4 (bispecific antibody)
VH: B5 VH
VL: B5 VL
chain: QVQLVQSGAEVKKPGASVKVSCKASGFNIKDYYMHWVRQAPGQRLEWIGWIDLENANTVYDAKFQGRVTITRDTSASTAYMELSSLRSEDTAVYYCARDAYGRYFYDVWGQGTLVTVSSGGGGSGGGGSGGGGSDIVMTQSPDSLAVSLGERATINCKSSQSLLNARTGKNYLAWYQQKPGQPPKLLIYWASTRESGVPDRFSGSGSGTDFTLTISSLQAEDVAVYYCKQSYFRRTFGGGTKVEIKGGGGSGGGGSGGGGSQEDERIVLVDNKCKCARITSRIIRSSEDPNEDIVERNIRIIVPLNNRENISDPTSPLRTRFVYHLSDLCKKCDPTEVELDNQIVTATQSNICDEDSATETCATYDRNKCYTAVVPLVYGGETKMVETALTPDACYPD
notes: as for B4
B7: IgM OKT10-2 (bispecific antibody)
VH: EVQLLESGGGLVQPGGSLRLSCAASGFDFSRSWMNWVRQAPGKGLEWVSEINPDSSTINYATSLKDRFTISRDNSKNTLYLQMNSLRAEDTAVYYCARYGNWFPYWGQGTLVTVSS
VL: DIQMTQSPSSLSASVGDRVTITCKASQNVDTNVAWYQQKPGKAPKALIYSASYRYSGVPSRFSGSGSGTDFTLTISSLQPEDFATYYCQQYDSYPLTFGQGTKVEIK
chain: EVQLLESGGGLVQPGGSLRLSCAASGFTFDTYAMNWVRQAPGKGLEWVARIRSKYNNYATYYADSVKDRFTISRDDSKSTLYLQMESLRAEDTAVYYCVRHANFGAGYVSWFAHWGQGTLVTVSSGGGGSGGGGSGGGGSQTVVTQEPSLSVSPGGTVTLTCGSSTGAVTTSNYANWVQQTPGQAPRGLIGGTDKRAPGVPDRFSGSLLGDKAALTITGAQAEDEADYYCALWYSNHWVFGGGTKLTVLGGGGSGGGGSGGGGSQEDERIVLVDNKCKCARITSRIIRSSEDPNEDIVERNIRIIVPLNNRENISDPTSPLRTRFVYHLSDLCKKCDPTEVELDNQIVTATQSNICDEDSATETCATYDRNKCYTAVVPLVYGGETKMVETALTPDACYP
notes: as for B4
B8: IgM OKT10-4 (bispecific antibody)
VH: B7 VH
VL: B7 VL
chain: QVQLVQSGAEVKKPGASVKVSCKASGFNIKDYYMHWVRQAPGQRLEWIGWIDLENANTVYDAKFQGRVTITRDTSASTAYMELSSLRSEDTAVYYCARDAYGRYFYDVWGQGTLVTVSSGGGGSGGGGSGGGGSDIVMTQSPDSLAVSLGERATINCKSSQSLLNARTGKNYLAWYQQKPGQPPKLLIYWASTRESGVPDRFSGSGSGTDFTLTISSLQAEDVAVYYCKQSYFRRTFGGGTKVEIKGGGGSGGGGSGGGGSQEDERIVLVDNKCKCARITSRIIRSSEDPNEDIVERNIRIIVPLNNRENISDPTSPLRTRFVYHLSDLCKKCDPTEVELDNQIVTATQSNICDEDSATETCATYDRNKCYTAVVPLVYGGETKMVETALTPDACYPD
notes: as for B4

Assays:
[1] = molecular target: cell surface human CD38 on NCI-H929 myeloma cells (human, UniProt P28907 1-300); test: flow cytometry on NCI-H929 cells, AF488 anti-human kappa secondary antibody, median FL-1
Description: In addition, binding to cell surface human CD38 was assessed using the myeloma cell line, NCI-H929 (H929), and flow cytometry analysis. In brief, H929 cells were stained with serial dilutions of chimeric CD38×CD3 IgM antibodies for 30 minutes at 4° C. […] Cells were then washed twice, resuspended in fluorescence-activated cell sorting (FACS) stain buffer, and measured using flow cytometry.

[2] = molecular target: T3, recombinant human CD38 extracellular domain protein (ACROBiosystems, Cat #CD8-H5224) (human, UniProt P28907 43-300); test: ELISA, plate coated with recombinant human CD38 extracellular domain, HRP anti-human kappa detection, chemiluminescence (RLU)
T3 construct: Bought protein; also called recombinant human CD38 protein
Description: (§1) Plates were then washed five times with 0.05% phosphate buffered saline (PBS)-polysorbate sold under the trademark TWEEN® (PBS-TWEEN®) and blocked with 2% bovine serum albumin (BSA)-PBS. After blocking, 100 μL of serial dilutions of chimeric CD38×CD3 IgM antibodies, standards, and controls were added to each well of the plates and incubated at room temperature for 2 hours. […] PRISM® using a 4-parameter logistic model.

[3] = molecular target: T4, recombinant cynomolgus monkey CD38 extracellular domain protein (ACROBiosystems) (cynomolgus monkey, UniProt Q5VAN0 44-301); test: ELISA, plate coated with recombinant cynomolgus CD38 extracellular domain, HRP anti-human kappa detection, chemiluminescence (RLU)
T4 construct: Bought extracellular domain protein; also called cyno CD38; recombinant cyno CD38
Description: as §1

[4] = molecular target: T1, mouse CD38 (ACROBiosystems, CD8-M5223); test: ELISA, antigen coated at 1 µg/mL, serial dilutions of IgM
[5] = molecular target: T2, human CD157 protein (SinoBiological, …); test: as above
[6] = molecular target: T3, recombinant human CD38 extracellular …; test: ELISA, plate coated with 1 ug/mL recombinant human CD38, HRP anti-human kappa detection, chemiluminescence (RLU)
Description: The specificities of humanized CD38×CD3 IgM antibodies were measured in ELISA assays as follows. […] Plates were then washed with 0.05% PBS-polysorbate sold under the trademark TWEEN® (PBS-TWEEN®) and blocked with 2% BSA-PBS. After blocking, 100 μL of serial dilutions of humanized CD38×CD3 IgM antibodies and controls were added to the wells and incubated at room temperature for 2 hours. […] PRISM® using a 4-parameter logistic model.

| Binder | binding result [4] | binding result [5] | binding result [6] | further results |
| --- | --- | --- | --- | --- |
| B1 | – | – | – | binding result [1]: binds; binding result [2]: binds; binding result [3]: binds |
| B2 | – | – | – | EC50 (read off the curve) [1]: ~2 nM; EC50 (read off the curve) [2]: ~0.2 µg/mL; EC50 (read off the curve) [3]: ~0.2 µg/mL |
| B3 | no binding | no binding | binds | – |
| B4 | no binding | no binding | binds | – |
| B5 | no binding | no binding | binds | – |
| B6 | no binding | no binding | binds | – |
| B7 | no binding | no binding | – | EC50 (read off the curve) [6]: ~0.3 µg/mL |
| B8 | no binding | no binding | binds | – |

— patent US20250051473A1 (IGM BIOSCIENCES, published 2025)
